Here are results for one molecule from patent US20180355056A1 (Novartis, published 2018).

Assay [1] concerns the target T1, Human FXI zymogen (human, UniProt P03951 19-625).
T1 construct: also called huFXI; zymogen FXI
The experiment in a line: SET KD compared with the BIACORE KD for the FXI catalytic domain. A general note: Surface plasmon resonance follows binding to a sensor surface in real time, without labels.

For assay [2], the target named is T2, Human FXI activated (human, UniProt P03951 19-387; P03951 388-625).
T2 construct: The activity assay used Kordia HFXIa 1111a; also called huFXIa
T2 sequence (P03951 19-387 C226S, chain 1 of 2): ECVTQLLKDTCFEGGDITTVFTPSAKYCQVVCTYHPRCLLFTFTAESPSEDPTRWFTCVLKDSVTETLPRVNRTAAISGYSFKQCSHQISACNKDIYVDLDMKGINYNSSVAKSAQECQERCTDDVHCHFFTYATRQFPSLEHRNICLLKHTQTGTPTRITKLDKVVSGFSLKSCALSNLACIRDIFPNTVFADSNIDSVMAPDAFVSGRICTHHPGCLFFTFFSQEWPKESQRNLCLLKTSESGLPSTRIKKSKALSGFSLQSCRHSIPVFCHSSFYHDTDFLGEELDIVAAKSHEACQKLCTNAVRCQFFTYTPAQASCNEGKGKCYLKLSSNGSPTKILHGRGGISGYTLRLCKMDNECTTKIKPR
T2 sequence (P03951 388-625, chain 2 of 2): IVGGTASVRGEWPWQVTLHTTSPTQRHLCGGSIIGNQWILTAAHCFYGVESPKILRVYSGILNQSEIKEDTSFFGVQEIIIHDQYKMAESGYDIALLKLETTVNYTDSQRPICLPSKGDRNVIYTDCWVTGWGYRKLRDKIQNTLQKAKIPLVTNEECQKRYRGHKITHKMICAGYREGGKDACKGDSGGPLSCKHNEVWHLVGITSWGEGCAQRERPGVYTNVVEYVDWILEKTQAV
Described as above.

T1 sequence (P03951 19-625 C226S): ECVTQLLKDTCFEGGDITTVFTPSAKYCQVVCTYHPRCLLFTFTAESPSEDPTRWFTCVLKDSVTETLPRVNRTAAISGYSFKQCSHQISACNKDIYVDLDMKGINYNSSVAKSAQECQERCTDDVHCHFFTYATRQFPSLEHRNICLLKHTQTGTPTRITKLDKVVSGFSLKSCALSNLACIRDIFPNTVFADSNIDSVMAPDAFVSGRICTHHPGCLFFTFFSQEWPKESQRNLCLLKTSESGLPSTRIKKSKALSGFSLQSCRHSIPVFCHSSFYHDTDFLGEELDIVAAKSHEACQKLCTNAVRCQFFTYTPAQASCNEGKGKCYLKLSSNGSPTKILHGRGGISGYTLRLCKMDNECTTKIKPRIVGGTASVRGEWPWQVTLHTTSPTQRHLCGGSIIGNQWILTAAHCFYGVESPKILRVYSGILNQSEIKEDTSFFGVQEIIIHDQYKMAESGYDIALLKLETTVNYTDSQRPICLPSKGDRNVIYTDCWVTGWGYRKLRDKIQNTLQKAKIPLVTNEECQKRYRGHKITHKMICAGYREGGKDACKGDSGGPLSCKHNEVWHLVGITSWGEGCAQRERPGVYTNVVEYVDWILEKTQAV

B1: NOV1401-Fab (Fab, V domains shown)
VH: QVQLLESGGGLVQPGGSLRLSCAASGFTFSTAAMSWVRQAPGKGLEWVSGISGSGSSTYYADSVKGRFTISRDNSKNTLYLQMNSLRAEDTAVYYCARELSYLYSGYYFDYWGQGTLVTVSS
VL: QSVLTQPPSASGTPGQRVTISCSGSSSNIGSNDVSWYQQLPGTAPKLLIYKNYNRPSGVPDRFSGSKSGTSASLAISGLQSEDEADYYCSAWDQRQFDVVFGGGTKLTVLG
notes: also called Fab portion of NOV1401
As for B1, the figures for the “fold higher affinity than to the catalytic domain” value in assay [1] and in assay [2] were 300 times and 66 times, respectively.
